We go through 24 sequences from a protein production outcome set (Wang et al. 2014).

The nature of this data set: label from the status in PepcDB records.
For “MGCCYSLSSTVDPVQDHTTDASSEPRNGGGEDPPLTKFSFSALKTATNHFSPENIVSDQTSDVVFKGRLQNGGFVAIKRFNNMAWSDPKLFLEEAQRVGKLRHKRLVNLIGYCCDGDKRFLVADFMANDTLAKRLFQRKYQTMDWSIRLRVAYFVAEALDYCNTAGFASYNNLSAYKVLFDEDGDACLSCFGLMKEINNDQITTGSVNPENVIYRFGTVLVNLLSGKQIPPSHAPEMIHRKNVFKLMDPYLKGKFSIDEANVVYKLASQCLKYEGQESPNTKEIVATLETLQTRTEAPSYEVVEMTNQEKDASSSSNLSPLGEACLRMDLASIHSILVLAGYDDDKDIIELSFEEWIQEVKELQDVRRNGDRAFVEQDFKTAIACYSQFVEERSLVYPSVYARRSLSYLFCDEPEKALLDGMHAQGVFPDWPTAFYLQSVALAKLDMNTDSADTLKEAALLEVKK”, the protein production result is reported as “failed”.

Consider “MAKKPAAHATKPKPWTEMATHLVDVAMGRKPADLVIRNGRWVNVHSGEIIAGTDIAIAGGRFAYCGPNASHAIGQGTKVVDAGGRYLVPGLCDAHMHVESGMVTVTEFCRAVIPHGTTSMFIDPHEIANVLGLPGVRLMHDEAVAMPINVHVQMPSCVPSAPGLEHAGAELTVADVAEAMTWENIIGLGEVMNFPGVAANDPVMSGEIAATVRAGKTVGGHYASRDLGLPFHGYVAGGPEDDHEGTRAEDAIARVRQGMKAMLRLGSAWYDVASQIKAVTEGGIDPRNFILCTDDSHSGTLVHEGHMDRVVRHAIQQGLKPVTAIQMATINTAQHFRLEREIGSIAPGRLADLLIVSDLAAMTIDEVYARGVRLAKGGKLDIDIPAYDYPKTAKNTVKLGKKLRAGDFDITAPKGANEVRVRVIGVIENQAPTRALEADLPVEDGLVAMDRRNDVCQIALVERHRGTGGVTNAFVSGFGYMGDCAMASSVAHDAHHIICVGTNKQDMALAVNRLGQVGGGVVLFSKGKELALVEMPIAGLMSDERAEIVAAKAEKLTEAMRKMGCSLNNAYMQHSLLALVVIPELRISDVGLIDVTTFQKVDLFV”, for which the protein production result is “failed”.

On to “MEQMKITNLTGEQISFQLILHSGNARSCIIQSLRAYKEGKKDEADALIAKAEQDLSAAHDIHFQMIQKESGGEATAFSLLLMHAEDHLMSTLSMKELVKEMLDLFKTKNI”, for which the protein production entry is on record as “failed”.

Take “MKKIIGLLFIVSCCILLSPTIKVQADTVPLPAPIIEAFPVEAIAEAIAEELDKDSVNDIITQEDLDTITILPFPGLNLTGEDLNVLNNEVFTNATELAIWSNNIGEMPDLSESLPALETIKASDANITQFPNANYPNLTTVDFSKNNFGINIPEFIGMEKLVSINMEQAELSGYIAKDIWMNMPNLETLLLRDNHLISIPEDIFLTGQIRNRSFDGQTATYPPRTIKQGENLDVFVPFIYQALDFIAPAPGNEMIINDNGEFLYKPVYPSYTGSYMYTIETAGLEPGEHLLEISLNYNGSEYLGWYDFPVTITE”: the protein production entry is “failed”.

Take “VKDVRKIQFMPMERHNTELLSLVDNLPDPVFAIDLKGAVDMANMSALSLLGLHKQEVIGTQIGALLPSVRFSRWSEGVNARTRENLVIDGLDYILELMPVY”: the protein production entry was “failed”.

Regarding “MKKFKFTLFSLLVIIFSGLLIQRFSGYFYTTPVGIVKSVKIIDSEQLLTVKLVNNTKKTVVVKVKFNGNESTNPVFNKNNQILLDNSTKKWEFISLKRDGYTFILVVSFVSLVLGIAGKKGFFSLVGILFNIIFLFFLLWINQRNRSINLLLLISIYTIIAIIISTGTLYGLKKIDLRKVLATIFSVFLSYFITTITMKLLNDQGLRYEEMQFLTRPYRTVFLASLMLGGIGAALDNVVVIISSLDQLVRHTPEINTKELIESGKNIASDTTTSMINVLLFAYLSSATPFFIFYLANGWDFVETFKMHLSLEIMRILCGGLAILFTIPSSFLFFLLFKKIKKEGENR”, the protein production result was “failed”.

With “MRVKTIMTQNPVTITLPATRNYALELFKKYKVRSFPVVNKEGKLVGIISVKRILVNPDEEQLAMLVKRDVPVVKENDTLKKAAKLMLEYDYRRVVVVDSKGKPVGILTVGDIIRRYFAKSEKYKGVEIEPYYQRYVSIVWEGTPLKAALKALLLSNSMALPVVDSEGNLVGIVDETDLLRDSEIVRIMKSTELAASSEEEWILESHPTLLFEKFELQLPNKPVAEIMTRDVIVATPHMTVHEVALKMAKYSIEQLPVIRGEGDLIGLIRDFDLLKVLVKSKA”, the protein production result was “not failed”.

For the sequence “TNDEETIQQQILALSADKRNFLRDPPAGVQFNFDFDQMYPVALVMLQEDELLSKMRFALVPKLVKEEVFWRNYFYRVSLIKQSAQLT”, the protein production entry is reported as “not failed”.

In the case of “MSLIERVRTDLYRIPLPTRLTDSTHGAMMDFELITVRIEDSDGATGLGYTYTVNHGGAAVATMVDKDLRGCLLGADAEQIEKIWQSMWWRLHYAGRGGHATSAISAVDIALWDLKGIRARTPLWKLFGGYDPVVPVYAGGIDLELPVADLKTQADRFLAGGFRAIKMKVGRPDLKEDVDRVSALREHLGDSFPLMVDANMKWTVDGAIRAARALAPFDLHWIEEPTIPDDLVGNARIVRESGHTIAGGENLHTLYDFHNAVRAGSLTLPEPDVSNIGGYTTFRKVAALAEANNMLLTSHGVHDLTVHALASVPHRTYMEAHGFGLHAYMAEPMAVTDGCVSAPDRPGHGVVLDFERLGRLAVGEGHHHHHH”, the protein production entry is given as “not failed”.

“MNARLGVSLKILSALCATLMLACVKGLNGAIPTGEVIFFRSFVALFPLLLWLKVQGNILQRIKTKNIFGHLIRGFSGTGGMYFNYLALVYISLADATAISYAAPLFTVLMAAILLKENVHFSRWLAVIVGFCGILIMLSAKLTISNGLFSSGFALDGTALGATFALLAAACAATSNIQIRFLNGVESPGAIVFYFSLMTTLIGLFTLVFGWKMPHGWQWLLLIGCGLFGGIAQILVTLSLRYADASLLAPFDYTTLVWSMVIGYLFLDNLPEYATLMGASVVALAGIFTIWCNRRQRKGHIVRSS”: the protein production result is reported as “failed”.

Regarding “SQGDCSYSRTALYDLLGVPSTATQAQIKAAYYRQCFLYHPDRNSGSAEAAERFTRISQAYVVLGSATLRRKYDRGLLSDEDLRGPG”, the protein production entry is recorded as “not failed”.

“MPSSSQYRRYQDPHHPSIPTPTTLFSQPSLEILGGGVAEELPELALCCDGTVVEGRSNCRCKARAVLPGGMRVRLSKTLAGILRHHPGRYGVRLTREGWARVSEVVEGLRKAGWSWVEEWHIVGVALHDPKGRYELRNGEIRARYGHSIPVNVEPLPGEPPPILYHGTTEEALPLIMERGIMRGRRLKVHLTSSLEDAVSTGRRHGNLVAVLLVDVECLRRRGLKVERMSKTVYTVDWVPPECIAEVRRESLGRSL”: the protein production result was “not failed”.

With “NILFGISDTQECYNAIKFAVKLAHSLKEVRFTLLHVSMEVFIYSESGMMDYGQTEALEEEKAKALLKQFEDAFKKENIECESVLKSGDLIDVVLDMAKDYDLLLIGASESNLLYRLFISHQNSLVEQSSIPVVIAK”, the protein production result is “failed”.

In the case of “MLWFLTCVAALVGGYFIYGAFVEKVFGINEKRQTPAHTKTDGVDYVPMSTPKVYLVQLLNIAGVGPIFGPIMGALYGPAAMLWIVVGCIFAGAVHDYFSGMLSIRNGGASVPSITGRYLGNGAKHFMNIFAIVLLLLVGVVFVSAPAGMITNLINQQTDFTVSMTTMVVIIFAYYILATIVPVDKIIGRFYPLFGALLIFMSVGLMTAIAFSSEHQVLGGFEISDMVKNLNPNDMPLWPALFITIACGAISGFHATQSPLMARCMENEKNGRFVFYGAMIGEGIIALIWCTVALSFFGSLEALSEAVKNGGPGNVVYGASFGLLGVFGGVIAFLGVVILPITSGDTAFRSSRLILAEYFNMEQKTLRNRLLMAVPLFVIGAVLTQVDFGIIWRYFGFANQATAVMMLWTATAYLMRHNKLHWICTVPALFMTTVCISFILNSSTLGFGLPMQISTIAGVLASLGALAYVAKVSKGKGETDLADEEKPQGVTKTA”, the protein production result is listed as “failed”.

For “MSQDKQMKAVSPLLQRVINISSIVGGVGSLIFCIWAYQAGILQSKETLSAFIQQAGIWGPPLFIFLQILQTVVPIIPGALTSVAGVFIYGHIIGTIYNYIGIVIGCAIIFYLVRLYGAAFVQSVVSKRTYDKYIDWLDKGNRFDRFFIFMMIWPISPADFLCMLAALTKMSFKRYMTIIILTKPFTLVVYTYGLTYIIDFFWQML”, the protein production result is “failed”.

For the sequence “AYSELQMLSPSERQCVETVVNMGYSYECVLRAMKKKGENIEQILDYLFAH”, the protein production result was “not failed”.

As to “MGTGEKTLKSFQLHRKQSVKVKDVPKGCLAIKVGSQGEEQQRFIVPVLYFNHPLFMQLLKEAEDEYGFDQKGTITIPCHVEEFRYVQALIDGERSVYNGNNHHHRHGGRDQYHHLVGCFRA”, the protein production result is recorded as “failed”.

For “MSSKPLYTILTVFNPIFIYFTKRDNLHTLRFKKDRAIKISEELFPDELCERCGRCCILHAYKTEDGIKTIYCEHLDPETKLCKVYKDRFKHRCLTVMEGILAGVFPKDCPYVKNLKNYEEPWFYRHLRDLEHHHHHH”, the protein production entry is listed as “failed”.

For “MRPGAPGPLWPLPWGALAWAVGFVSSMGSGNPAPGGVCWLQQGQEATCSLVLQTDVTRAECCASGNIDTAWSNLTHPGNKINLLGFLGLVHCLPCKDSCDGVECGPGKACRMLGGRPRCECAPDCSGLPARLQVCGSDGATYRDECELRAARCRGHPDLSVMYRGRCRKSCEHVVCPRPQSCVVDQTGSAHCVVCRAAPCPVPSSPGQELCGNNNVTYISSCHMRQATCFLGRSIGVRHAGSCAGTPEEPPGGESAEEEENFV”, the protein production entry was “failed”.

With “MYSSGNPTNIANPIKDASVQIDLKTVGGKLTLYQTTLCERISGDNIDLGLDLGSQSFLPTYNKNDIQLICCQADASVLWLVPDTVVTRFIQSLDWDTDMDITFTWVLNRDRPKGKETVKYERSVDPLDLPKRSDIQMVLNGSMDGFRVHNLYPKFFRVTGSGDVRSFEDQTDEVSADILINHANFKWWWSFHNLKASENISACEGMDGPVAIIMSEETPPPVGRFIRLQCSDLRMRIPYENLPSCDRLIAICEDLYAARAEGELGVEEVLYWTLVKIYRSPHMLLEYTKLDYDA”, the protein production result is “failed”.

For “MINKDTQLCMSLSGRPSNFGTTFHNYLYDKLGLNFIYKAFTTQDIEHAIKGVRALGIRGCAVSMPFKETCMPFLDEIHPSAQAIESVNTIVNDNGFLRAYNTDYIAIVKLIEKYHLNKNAKVIVHGSGGMAKAVVAAFKNSGFEKLKIYARNVKTGQYLAALYGYAYINSLENQQADILVNVTSIGMKGGKEEMDLAFPKAFIDNASVAFDVVAMPVETPFIRYAQARGKQTISGAAVIVLQAVEQFELYTHQRPSDELIAEAAAFARTKF”, the protein production entry is reported as “not failed”.

Take “MPKIPITLITGFLGSGKTSFLSEYLNQTDHQGVALIINEIGQAALDQRILSVQYCGEKMLYLNAGCVCCNKRLDLVESLKATLNNYEWHGEILRRIIIETTGLANPAPILWTILSDTFLGVHFEIQSVVACVDALNAREHLTNNEAKEQIVFADSVLLTKTDLQNDSAALTKLKERIQALNPSAEIFDKRAIDYESLFSRKNRARNFMPLEHHHHHH”: the protein production result was “failed”.

Regarding “MSEDSELIEQVIEQPDSLIISPPSDSSSSSYNHIQPFVYLESTATTQTNHNVLLILNQKITIDLISLWKKCEIIVCADGGANSLYEYFNDNNHHHHHENLQRSDYIPDYIVGDFDSISPDVKTYYESHGSKIIRQSSQYYNDFTKSIHCIQLHYQLNHTKENWFESIDEVDGLAKLWNGLNNSSDVVVDIDITIYVLNAIGGRFDQTVQSINQLYIMNEDYPKVTVFFITTNDIIFLLKKGVNYISYKNRLMFHKDNGSSPTPTCGLLPLSNKTPIILNSYGLKYDMRNWKTEMLGQVSSSNRISGETGFIVECSDDIVMNIEIDV”, the protein production result is on record as “not failed”.

In the case of “DHLILLPGWGLGSAPLEPLRDALHEREPHLNVLIEPLPSLDDAADWLDELDDNLPRDSWLAGWSLGGMLAGELAARRGDDCRGLLTLASNPCFRVREDWPNAMPAETFEDFFEAFLLEPHLTRKRFTLLVSQGARDPRTLARQLQVALPQLEREALVAGLQLLGQLDTRAALENFRGPQLHLFAEADALVPLAAAEALLEWLPDVEVSTLAASHGLPLECPDEVAGAILRFLRE”, the protein production result is given as “failed”.
